Source: article doi:10.1101/2025.03.26.645513v1

Substrate: CC(=O)OC[C@H](N)C(=O)O
Assay: purified protein
Conditions: 15 mM Na2S, MOPS, 37 °C, no glycerol

B1: SaCysK (Staphylococcus aureus subsp. aureus N315) (protein)
chain: MAQKPVDNITQIIGGTPVVKLRNVVDDNAADVYVKLEYQNPGGSVKDRIALAMIEKAEREGKIKPGDTIVEPTSGNTGIGLAFVCAAKGYKAVFTMPETMSQERRNLLKAYGAELVLTPGSEAMKGAIKKAKELKEEHGYFEPQQFENPANPEVHELTTGPELLQQFEGKTIDAFLAGVGTGGTLSGVGKVLKKEYPNIEIVAIEPEASPVLSGGEPGPHKLQGLGAGFIPGTLNTEIYDSIIKVGNDTAMEMSRRVAKEEGILAGISSGAAIYAAIQKAKELGKGKTVVTVLPSNGERYLSTPLYSFDD
B1 showed a Km of 1378 ± 592 µM.
